Legend:
[1] = biological target: T1, Cynomolgus monkey (Macaca fascicularis) LILRB ectodomain fused to mIgG2a (cynomolgus monkey (Macaca fascicularis)); experiment: summary table (ELISA); Rhesus & Cyno LILRB1/2 binding; Y = Yes
T1 construct: also called cynomolgus LILRB protein

[2] = biological target: T2, Rhesus monkey (Macaca mulatta) LILRB ectodomain fused to mIgG2a Fc (rhesus monkey (Macaca mulatta)); experiment: as above
T2 construct: also called rhesus LILRB-mIgG2a; rhesus LILRB protein

[3] = biological target: T3, Human LILRB1 (D1-D2) fused to mouse IgG2a Fc (human); experiment: summary table (ELISA); N = No
T3 construct: also called truncated (D1-D2) version of the LILRB1 ecto-domain
T3 sequence (chain, as listed by the source limits assumed): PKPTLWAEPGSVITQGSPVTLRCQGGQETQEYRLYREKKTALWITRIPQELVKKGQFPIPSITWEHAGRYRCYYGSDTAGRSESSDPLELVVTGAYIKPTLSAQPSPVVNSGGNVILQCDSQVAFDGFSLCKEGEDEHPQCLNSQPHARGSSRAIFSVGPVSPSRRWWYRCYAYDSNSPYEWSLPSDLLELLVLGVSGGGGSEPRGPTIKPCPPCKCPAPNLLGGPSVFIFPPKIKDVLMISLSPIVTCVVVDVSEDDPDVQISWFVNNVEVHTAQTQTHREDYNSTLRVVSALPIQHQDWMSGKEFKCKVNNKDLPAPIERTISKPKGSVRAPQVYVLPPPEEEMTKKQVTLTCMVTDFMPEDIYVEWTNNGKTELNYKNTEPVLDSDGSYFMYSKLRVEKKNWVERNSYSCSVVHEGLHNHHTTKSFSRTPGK

[4] = biological target: T4, human LILRB1 ectodomain fused to mIgG2a Fc (human); experiment: summary table (ELISA); Y = Yes
T4 construct: also called human LILRB1-mIgG2a; full length LILRB1 ectodomain

[5] = biological target: LILRA5 recombinant, full-length ectodomain (LILRA5 42-268) (human, UniProt A6NI73 42-268); experiment: summary table (single point ELISA); N = No
[6] = biological target: LILRB4 recombinant, full-length ectodomain (LILRB4 17-257) (human, UniProt Q8NHJ6 22-257); experiment: summary table (single point ELISA); N = No
[7] = biological target: LILRB5 recombinant, full-length ectodomain (LILRB5 18-456) (human, UniProt O75023 24-456); experiment: summary table (single point ELISA); N = No
Sequence of LILRB5 recombinant, full-length ectodomain (LILRB5 18-456) (O75023 24-456 limits assumed): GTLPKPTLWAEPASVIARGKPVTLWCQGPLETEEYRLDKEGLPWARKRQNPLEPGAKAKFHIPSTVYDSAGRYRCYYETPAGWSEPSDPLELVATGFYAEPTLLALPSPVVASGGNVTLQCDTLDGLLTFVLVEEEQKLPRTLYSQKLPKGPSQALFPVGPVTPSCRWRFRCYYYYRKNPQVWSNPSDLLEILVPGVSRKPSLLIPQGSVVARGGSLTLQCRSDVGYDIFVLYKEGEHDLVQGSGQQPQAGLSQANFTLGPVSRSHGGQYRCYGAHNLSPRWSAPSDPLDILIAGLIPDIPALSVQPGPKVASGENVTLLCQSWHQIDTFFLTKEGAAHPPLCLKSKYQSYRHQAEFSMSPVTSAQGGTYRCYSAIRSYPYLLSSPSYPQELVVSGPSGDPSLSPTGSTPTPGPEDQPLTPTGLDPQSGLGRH

[8] = biological target: T5, Human LILRA2 ectodomain (human, UniProt Q8N149 24-449); experiment: summary table (single point ELISA); N = No
T5 construct: Recombinant protein from a commercial source
T5 sequence (Q8N149 24-449 S135L): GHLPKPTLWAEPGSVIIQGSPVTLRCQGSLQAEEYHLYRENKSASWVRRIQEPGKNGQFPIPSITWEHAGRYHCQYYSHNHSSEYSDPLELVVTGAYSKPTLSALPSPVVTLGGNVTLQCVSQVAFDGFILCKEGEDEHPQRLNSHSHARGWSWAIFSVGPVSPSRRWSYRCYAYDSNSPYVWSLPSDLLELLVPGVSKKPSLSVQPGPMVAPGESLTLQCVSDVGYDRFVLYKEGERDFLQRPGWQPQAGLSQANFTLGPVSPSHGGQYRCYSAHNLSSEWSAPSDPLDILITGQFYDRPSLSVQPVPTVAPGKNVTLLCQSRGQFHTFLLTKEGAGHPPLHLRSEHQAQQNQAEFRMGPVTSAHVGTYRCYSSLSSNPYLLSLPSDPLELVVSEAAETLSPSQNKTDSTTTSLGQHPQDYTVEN

[9] = biological target: T6, Human LILRB1(L68P/A93T) ectodomain fused to mIgG2aFc (human); experiment: ELISA, antigen coated, 10 nM antibody
T6 construct: The entry already carries the two substitutions
T6 sequence (chain, as listed by the source L68P A93T L68P A93T limits assumed): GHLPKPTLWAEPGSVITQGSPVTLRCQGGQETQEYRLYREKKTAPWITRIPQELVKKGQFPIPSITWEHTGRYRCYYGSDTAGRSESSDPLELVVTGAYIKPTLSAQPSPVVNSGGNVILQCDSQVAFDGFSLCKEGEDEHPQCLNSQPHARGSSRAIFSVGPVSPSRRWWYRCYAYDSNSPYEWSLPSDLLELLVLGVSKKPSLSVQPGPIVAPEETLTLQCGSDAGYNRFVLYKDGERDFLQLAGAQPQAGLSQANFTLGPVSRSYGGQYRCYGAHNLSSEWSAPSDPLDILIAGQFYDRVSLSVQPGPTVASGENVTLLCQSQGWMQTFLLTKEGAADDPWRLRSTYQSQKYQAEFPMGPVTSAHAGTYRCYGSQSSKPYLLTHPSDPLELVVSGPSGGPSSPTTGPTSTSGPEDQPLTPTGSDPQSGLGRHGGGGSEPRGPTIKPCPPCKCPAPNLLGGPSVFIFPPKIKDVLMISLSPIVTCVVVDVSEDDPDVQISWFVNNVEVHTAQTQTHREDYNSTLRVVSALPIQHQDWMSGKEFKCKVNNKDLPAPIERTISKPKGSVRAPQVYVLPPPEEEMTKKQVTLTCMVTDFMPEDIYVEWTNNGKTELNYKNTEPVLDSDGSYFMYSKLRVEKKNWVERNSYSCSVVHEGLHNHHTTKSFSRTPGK
Source text: (§1) FIG. 3. Mixed LILRB1 and LILRB2 expression in TAMs from melanoma cancer patients. Analysis of LILRB1 and LILRB2 detection in macrophages in pre- and post-anti-PD-1 and/or anti-CTLA-4 therapy treated melanoma patients (n=33) is shown using Smart-seq2 data from Sade-Feldman et al. https://pubmed.ncbi.nlm.nih.gov/30633907/FIG. 4. Binding to domains of human LILRB1. Plates were coated with recombinant full length LILRB1 ectodomain (SEQ ID NO: 41) or a protein comprising domain 1 and 2 of human LILRB1 protein (SEQ ID NO: 42), and then incubated with 10 nM Clones 1-5, Reference Ab 1, and Isotype control. The bound antibodies were detected using HRP-labeled secondary antibodies and the results were plotted on the graph as absorbance measured at 450 nm.
(§2) Binding to allelic forms of LILRB1. There are 4 major allelic variants of human LILRB1 protein ectodomain. The variants of LILRB1 were expressed as recombinant proteins comprising a modified LILRB1 ectodomain and mouse IgG2 Fc region (SEQ ID NO: 50 and 51) in suspension CHO cells, and purified by using techniques that were known in the art. These recombinant proteins were then used in the direct enzyme-linked immunosorbent assay (ELISA) to determine the antibodies potential to bind different allelic forms of LILRB1. In short, Maxisorp (Nunc) or similar immune-assay plates were coated with solutions of target proteins in PBS, at 4° C., overnight. Plates were then washed with PBS, blocked with 5% milk in PBS, and washed again. Test antibodies diluted in PBS were then added to the plates and incubated at room temperature for at least 1h. Plates were subsequently washed with PBS/0.05% Tween-20 (PBST) and incubated with a solution of horse radish peroxidase (HRP) labelled secondary antibodies at room temperature for at least 1 h. After washing with PBST and PBS, bound antibodies were detected using the 3,3′,5,5;-tetramethylbenzidine (TMB) chromogenic solution. After 5 to 10 minutes, the reaction was stopped with 1% sulphuric acid and absorbance read at 450 nm.
(§3) There are four major allelic variants within the ecto-domain of LILRB1 in human population [Human Molecular Genetics, 2005, Vol. 14, 2469-2480]; namely c.203T>C (L68P), c.277G>A (A93T), c.425T>C (I142T), and c.464G>T (S155I).

[10] = biological target: T7, Human LILRB1(I142T/S155I) ectodomain fused to mIgG2aFc (human); experiment: ELISA, antigen coated, 10 nM antibody
T7 construct: The entry already carries the two substitutions
Source text: as §1, §2, §3

[11] = biological target: LILRA6 recombinant, full-length ectodomain (LILRA6 24-447) (human, UniProt Q6PI73 24-447); experiment: multi-point ELISA, antigen coated, apparent EC50
Sequence of LILRA6 recombinant, full-length ectodomain (LILRA6 24-447) (Q6PI73 24-447): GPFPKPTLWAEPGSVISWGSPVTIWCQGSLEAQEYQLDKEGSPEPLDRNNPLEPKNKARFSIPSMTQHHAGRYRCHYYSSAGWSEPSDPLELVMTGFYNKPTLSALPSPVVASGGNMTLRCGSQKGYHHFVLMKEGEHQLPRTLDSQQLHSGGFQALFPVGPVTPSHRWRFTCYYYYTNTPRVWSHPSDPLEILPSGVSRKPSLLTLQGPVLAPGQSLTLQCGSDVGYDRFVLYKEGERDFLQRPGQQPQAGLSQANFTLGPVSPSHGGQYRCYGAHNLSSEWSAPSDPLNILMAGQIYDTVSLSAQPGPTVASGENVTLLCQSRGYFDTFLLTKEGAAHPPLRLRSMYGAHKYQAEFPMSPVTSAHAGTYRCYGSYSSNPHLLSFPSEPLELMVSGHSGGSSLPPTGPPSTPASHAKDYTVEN
Procedure: (§4) FIG. 32. Binding of Clones 1-5 to selected LILR family members tested by multiple point ELISA. Recombinant LILRB1, LILRB2, LILRB3, LILRA1, LILRA3, LILRA4, and LILRA6, or irrelevant control protein were coated on the ELISA plates. The plates were then blocked with milk in PBST. Next, the plates were incubated with serial dilutions (12.5 nM to 0.02 nM) of Clones 1-5 (A-E). Bound antibodies were detected using HRP-conjugated anti-human Fc antibodies and the chromogenic substrate.
as §4, with “Binding of” for “FIG. 32. Binding of”, “point ELISA. (FIG. 32) Recombinant LILRB1,” for “point ELISA. Recombinant LILRB1,”, “LILRA3, LILRA4, LILRA6, or” for “LILRA3, LILRA4, and LILRA6, or”, “nM) of Clone 1-5 (A-E).” for “nM) of Clones 1-5 (A-E).”

[12] = biological target: LILRA4 recombinant, full-length ectodomain (LILRA4 24-446) (human, UniProt P59901 24-446); experiment: multi-point ELISA, antigen coated, apparent EC50
Procedure: as §4
as §4, with “Binding of” for “FIG. 32. Binding of”, “point ELISA. (FIG. 32) Recombinant LILRB1,” for “point ELISA. Recombinant LILRB1,”, “LILRA3, LILRA4, LILRA6, or” for “LILRA3, LILRA4, and LILRA6, or”, “nM) of Clone 1-5 (A-E).” for “nM) of Clones 1-5 (A-E).”

[13] = biological target: LILRB2 recombinant, full-length ectodomain (LILRB2 22-458) (human, UniProt Q8N423 22-458); experiment: multi-point ELISA, antigen coated, apparent EC50
Sequence of LILRB2 recombinant, full-length ectodomain (LILRB2 22-458) (Q8N423 22-458): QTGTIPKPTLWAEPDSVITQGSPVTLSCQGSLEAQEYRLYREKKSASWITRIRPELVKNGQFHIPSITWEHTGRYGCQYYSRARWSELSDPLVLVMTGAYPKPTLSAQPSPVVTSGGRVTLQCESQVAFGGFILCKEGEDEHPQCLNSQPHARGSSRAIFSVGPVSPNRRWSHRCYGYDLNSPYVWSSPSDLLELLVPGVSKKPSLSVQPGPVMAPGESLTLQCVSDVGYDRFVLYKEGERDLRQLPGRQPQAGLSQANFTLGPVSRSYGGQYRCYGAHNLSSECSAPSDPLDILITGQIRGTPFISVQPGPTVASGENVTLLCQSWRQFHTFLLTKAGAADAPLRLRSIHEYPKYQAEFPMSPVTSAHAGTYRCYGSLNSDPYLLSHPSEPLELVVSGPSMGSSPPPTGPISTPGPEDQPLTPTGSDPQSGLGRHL
Procedure: as §4
as §4, with “Binding of” for “FIG. 32. Binding of”, “point ELISA. (FIG. 32) Recombinant LILRB1,” for “point ELISA. Recombinant LILRB1,”, “LILRA3, LILRA4, LILRA6, or” for “LILRA3, LILRA4, and LILRA6, or”, “nM) of Clone 1-5 (A-E).” for “nM) of Clones 1-5 (A-E).”

[14] = biological target: T8, Human full length LILRA3 (human, UniProt Q8N6C8 24-439); experiment: multi-point ELISA, antigen coated, apparent EC50
T8 construct: Commercial recombinant protein; also the parent of the LILRA3 peptide microarrays
T8 sequence (Q8N6C8 24-439 A105V limits assumed): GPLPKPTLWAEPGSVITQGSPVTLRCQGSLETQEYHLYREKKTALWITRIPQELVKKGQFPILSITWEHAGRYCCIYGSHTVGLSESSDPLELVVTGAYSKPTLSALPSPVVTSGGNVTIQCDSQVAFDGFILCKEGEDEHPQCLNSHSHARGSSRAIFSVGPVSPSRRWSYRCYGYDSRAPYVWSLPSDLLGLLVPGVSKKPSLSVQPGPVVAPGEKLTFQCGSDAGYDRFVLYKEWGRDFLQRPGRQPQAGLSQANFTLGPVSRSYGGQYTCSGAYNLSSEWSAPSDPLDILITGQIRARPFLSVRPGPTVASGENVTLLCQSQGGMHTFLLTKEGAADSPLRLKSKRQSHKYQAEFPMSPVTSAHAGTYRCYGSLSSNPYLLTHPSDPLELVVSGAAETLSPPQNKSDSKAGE
Procedure: as §4
as §4, with “Binding of” for “FIG. 32. Binding of”, “point ELISA. (FIG. 32) Recombinant LILRB1,” for “point ELISA. Recombinant LILRB1,”, “LILRA3, LILRA4, LILRA6, or” for “LILRA3, LILRA4, and LILRA6, or”, “nM) of Clone 1-5 (A-E).” for “nM) of Clones 1-5 (A-E).”

[15] = biological target: LILRB3 recombinant, full-length ectodomain (LILRB3 24-443) (human, UniProt O75022 24-443); experiment: multi-point ELISA, antigen coated, apparent EC50
Procedure: as §4
as §4, with “Binding of” for “FIG. 32. Binding of”, “point ELISA. (FIG. 32) Recombinant LILRB1,” for “point ELISA. Recombinant LILRB1,”, “LILRA3, LILRA4, LILRA6, or” for “LILRA3, LILRA4, and LILRA6, or”, “nM) of Clone 1-5 (A-E).” for “nM) of Clones 1-5 (A-E).”

[16] = biological target: LILRB1 recombinant, full-length ectodomain (human, UniProt Q8NHL6 24-461); experiment: multi-point ELISA, antigen coated, apparent EC50
Sequence of LILRB1 recombinant, full-length ectodomain (Q8NHL6 24-461 limits assumed): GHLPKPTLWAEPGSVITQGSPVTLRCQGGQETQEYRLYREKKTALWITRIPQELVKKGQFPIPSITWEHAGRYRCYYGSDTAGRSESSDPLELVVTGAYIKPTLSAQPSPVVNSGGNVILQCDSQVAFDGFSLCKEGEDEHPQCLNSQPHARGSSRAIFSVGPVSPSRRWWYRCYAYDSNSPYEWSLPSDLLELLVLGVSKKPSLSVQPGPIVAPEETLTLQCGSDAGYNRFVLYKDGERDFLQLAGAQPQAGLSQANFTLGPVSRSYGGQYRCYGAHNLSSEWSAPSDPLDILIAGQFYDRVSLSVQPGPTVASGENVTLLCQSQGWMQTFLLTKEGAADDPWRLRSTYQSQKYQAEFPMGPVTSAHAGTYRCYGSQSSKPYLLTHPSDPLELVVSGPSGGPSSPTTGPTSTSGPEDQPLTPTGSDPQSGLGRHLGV
Procedure: as §4
as §4, with “Binding of” for “FIG. 32. Binding of”, “point ELISA. (FIG. 32) Recombinant LILRB1,” for “point ELISA. Recombinant LILRB1,”, “LILRA3, LILRA4, LILRA6, or” for “LILRA3, LILRA4, and LILRA6, or”, “nM) of Clone 1-5 (A-E).” for “nM) of Clones 1-5 (A-E).”

[17] = biological target: T9, Human LILRA1 ectodomain (human, UniProt O75019 17-461); experiment: multi-point ELISA, antigen coated, apparent EC50
T9 construct: Recombinant protein from a commercial source
Procedure: as §4
as §4, with “Binding of” for “FIG. 32. Binding of”, “point ELISA. (FIG. 32) Recombinant LILRB1,” for “point ELISA. Recombinant LILRB1,”, “LILRA3, LILRA4, LILRA6, or” for “LILRA3, LILRA4, and LILRA6, or”, “nM) of Clone 1-5 (A-E).” for “nM) of Clones 1-5 (A-E).”

[18] = biological target: T10, Human full length LILRB2 (human, UniProt Q8N423 22-597); experiment: flow cytometry, displacement of PE-labelled HLA-A2, HLA-E and HLA-G multimers from HEK293 cells overexpressing LILRB2
T10 construct: Over-expressed on HEK293 cells for flow cytometry; Also used here as the parent protein of the D3-D4 peptide microarrays; also called LILRB2 on HEK293 cells
T10 sequence (Q8N423 other isoform, or with tags, fused parts or gaps limits assumed): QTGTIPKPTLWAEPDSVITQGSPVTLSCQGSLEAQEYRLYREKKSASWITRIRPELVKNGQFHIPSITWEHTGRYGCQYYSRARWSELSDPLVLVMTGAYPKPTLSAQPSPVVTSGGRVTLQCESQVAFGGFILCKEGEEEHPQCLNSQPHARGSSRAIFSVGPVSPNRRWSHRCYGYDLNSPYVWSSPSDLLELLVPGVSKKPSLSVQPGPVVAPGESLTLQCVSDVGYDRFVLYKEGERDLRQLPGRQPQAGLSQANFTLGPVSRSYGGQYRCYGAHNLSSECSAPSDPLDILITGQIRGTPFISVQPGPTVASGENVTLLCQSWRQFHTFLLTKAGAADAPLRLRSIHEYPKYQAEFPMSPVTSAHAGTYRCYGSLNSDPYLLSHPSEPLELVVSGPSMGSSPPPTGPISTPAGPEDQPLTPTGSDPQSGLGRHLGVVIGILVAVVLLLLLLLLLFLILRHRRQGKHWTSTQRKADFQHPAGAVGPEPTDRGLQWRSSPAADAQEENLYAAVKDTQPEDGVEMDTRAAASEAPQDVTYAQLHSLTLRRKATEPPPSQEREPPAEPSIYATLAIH
Procedure: (§5) To investigate if the Antibodies 1 to 5 could neutralize binding of other HLA-As to LILRB1 or to LILRB2, HEK293 cells overexpressing the receptors were incubated with constant concentrations of PE-labelled HLA-A2, HLA-E, and HLA-G multimers and increasing concentrations of Antibodies 1 to 5 or the reference antibodies. The ability to neutralize binding of HLA to the cells was determined by flow cytometry (FIG. 21). None of Antibodies 1 to 5 neutralized binding of HLA-A (A), HLA-E (B), and […] to LILRB1 protein, up to the concentrations of 100 nM, whereas Reference 1 antibody (LILRB1 specific) and Reference 3 antibody (LILRB1/2 specific) neutralized the binding with an IC₅₀ in the sub- or low-nM range. Similarly, none of Antibodies 1 to 5 neutralised efficiently the binding of HLA-A (E) and HLA-G (G). […] Reference Antibody 2 (LILRB2 specific) and Reference Antibody 3 (LILRB1/2 specific), inhibited the binding for all HLAs, with IC₅₀ with sub- or low-nM range.

[19] = biological target: T11, Human full length LILRB1 (human, UniProt Q8NHL6 24-650); experiment: flow cytometry, displacement of PE-labelled HLA-A2, HLA-E and HLA-G multimers from HEK293 cells overexpressing LILRB1
T11 construct: Over-expressed on HEK293 cells for flow cytometry; also called LILRB1 on HEK293 cells; cell membrane embedded LILRB1
Procedure: as §5

T2 sequence (chain, as listed by the source limits assumed): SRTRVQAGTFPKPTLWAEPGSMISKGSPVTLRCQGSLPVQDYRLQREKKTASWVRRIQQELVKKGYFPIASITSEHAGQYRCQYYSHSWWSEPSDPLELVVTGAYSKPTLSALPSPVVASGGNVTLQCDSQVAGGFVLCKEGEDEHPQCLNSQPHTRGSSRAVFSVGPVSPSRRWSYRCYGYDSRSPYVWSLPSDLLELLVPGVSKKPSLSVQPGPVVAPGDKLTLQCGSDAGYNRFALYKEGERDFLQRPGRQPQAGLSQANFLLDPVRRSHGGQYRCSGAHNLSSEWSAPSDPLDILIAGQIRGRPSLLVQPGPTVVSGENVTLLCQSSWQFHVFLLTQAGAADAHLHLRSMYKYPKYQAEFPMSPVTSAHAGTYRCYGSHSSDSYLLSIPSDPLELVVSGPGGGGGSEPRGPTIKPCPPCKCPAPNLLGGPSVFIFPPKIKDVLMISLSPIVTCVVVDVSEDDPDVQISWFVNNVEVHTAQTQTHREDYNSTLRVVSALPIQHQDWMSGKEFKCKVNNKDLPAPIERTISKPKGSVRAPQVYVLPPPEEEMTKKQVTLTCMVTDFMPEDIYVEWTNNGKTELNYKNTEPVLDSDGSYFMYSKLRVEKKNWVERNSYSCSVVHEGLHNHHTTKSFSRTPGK

| Binder | binding result [1] | binding result [2] | binding result [3] | binding result [4] | binding result [5] | binding result [6] | binding result [7] | binding result [8] | binding result [9] | binding result [10] | EC50 [11] [pM] | EC50 [12] [pM] | EC50 [13] [pM] | EC50 [14] [pM] | EC50 [15] [pM] | EC50 [16] [pM] | EC50 [17] [pM] | binding result [18] | binding result [19] |
| --- | --- | --- | --- | --- | --- | --- | --- | --- | --- | --- | --- | --- | --- | --- | --- | --- | --- | --- | --- |
| Antibody 2 (antibody, V domains shown, Fully human antibody; IgG1 and IgG1 LALA variants also made for functional assays; also called Clone 2; Antibody Clone 2) VH: QVQLVESGGDLVKPGGSLRLSCAASGFTFRDYYMSWIRQAPGKGLEWVSYISPSGSTIFYADSVKGRFTISRDNAKNSLYLQMNSLRAEDTAVYYCAKDRVRLFDYWGQGTLVTVSS VL: EIVLTQSPATLSLSPGERATLSCRASQSVSSSYLAWYQQKPGQAPRLLIYGASTRATGIPARFSGSGSGTDFTLTISRLEPEDFAVYYCQQRSNWPITFGQGTRLEIK | binds | binds | no binding | binds | no binding (tested: 1 nM) | no binding (tested: 1 nM) | no binding (tested: 1 nM) | no binding (tested: 1 nM) | binds | binds | 920 | 620 | 740 | 840 | 690 | 780 | 8370 |  |  |
| Reference Antibody 3 (anti-human LILRB1 and LILRB2 Ab) (antibody, V domains shown) VH: QVQLVQSGAEVKKPGASVKVSCKASGYTFTDYYINWVRQAPGQGLEWMGNVNPNDGGTTYNQKFKGRVTMTTDTSTSTAYMELRSLRSDDTAVYYCARREIYFYGTIYYYAMDYWGQGTLVTVSS VL: DIQLTQSPSFLSASVGDRVTITCRASESVDYYGNSFMYWYQQKPGKAPKLLIYFASNLESGVPSRFSGSGSGTEFTLTISSLQPEDFATYYCQQNNEDPWTFGGGTKVEIK |  |  |  |  |  |  |  |  |  |  |  |  |  |  |  |  |  | binds | binds |

— patent publication US20250197491A1 (MACOMICS, published 2025)
